In the DeepSol protein solubility set:

Test: soluble on expression in E. coli; label from the status in PepcDB or PDB records

Sequence	soluble on expression in E. coli
MGLDTIEKGADGLDSIKSLAFVYGETDNPYTKTSELFTWLFGHEIADTVLLLLNDHIYILGSNRKVEFFGSVTGDNQSSGKVPTVSTLLRDKTDKDAGNFEKLIDHIKSAGGDVGNFVKEKFSSEFVSSWNKALEEGGVNKNDVTLAFTHLFAVKDDKEMDLIRKSAQATTASWTAARARYVEISDNEKVLIVLKIVELGVLLRVRHSVLSNQFAAFMKDSKVQQALAKYEADTCYDPIKMLIFVDRKYDSVVVPIFGIPVPFHISMIKNCSQSVEGDLTYLRINFATPGSQVGKDSGQFPHPLAHYMKEFTFRASNIKDHHSDSTAPSRNLSTAFRFIKEMQKRFKSEEAEQREKEGAVKQDKLILSQNKLNPKLNLLICPNIIQKLITGSLEAHTNGFRFLFNSFSRYTSLRAFFEEGGWSFLNAESDNEEAMDDSDDSDAYDPEEEDASAGSGSESDEDESEGEETESDDDDEGSLDSDEFVQPIFAF	not soluble
MSQTVHFQGNPVTVANVIPQAGSKAQAFTLVAKDLSDVSLSQYAGKRKVLNIFPSIDTGVCAASVRKFNQLATEVENTVVLCVSADLPFAQSRFCGAEGLSNVITLSTLRNNEFLKNYGVEIVDGPLKGLAARAVIVLDENDNVIFSQLVDEITHEPDYDAALNVLKA	not soluble
MLLEEVRAGDRLSGAAARGDVQEVRRLLHRELVHPDALNRFGKTALQVMMFGSTAIALELLKQGASPNVQDTSGTSPVHDAARTGFLDTLKVLVEHGADVNVPDGTGALPIHLAVQEGHTAVVSFLAAESDLHRRDARGLTPLELALQRGAQDLVDILQGHMVAPL	soluble
MKLSPREADGYFARPDAGKTGILIHGADAMRIALKRQQIIAALLGPGGEEEMRLTRMPGAELRKDAAQLLDAVKAVGFFPGPRVVFVEDCPETSAPAVLTALEDWQPGDAQIVVTAGQLKPSSKIRKAFETHPNAYAAGIYDDPPSRAEIERMLSAAGIRDVPPEPMTVLSDLARDLGPGDFAQTMEKLALYKLGDTAPLVLEDIAACAPRSTEAALDDVLNVVAEGKEGEIGPLIRRLQAQGTTPVSLCIGATRHFRTLYTCASAPGGPSQGIGALRPPVFGPRRDRILNQAQRWGARRLEAALTVLTDTDLALRSAGQSAPQMALVERAMIRLAWLSRSRLEHHHHHH	not soluble
MSLKTIVVKFGTSTLTQGSPKLNSPHMMEIVRQIAQLHNDGFRIVIVTSGAIAAGRHYLNHPQLPPTIASKQLLAAVGQSQLIQAWEKLFAIYDIHIGQLLLTRADIEDRERFLNARDTLYALLDNHIIPVINENDAVATAEIKVGDNDNLSALVAILVQAEQLYLLTDQQGLFDSDPRKNPEAKLIPVVEQITDHIRSIAGGSGTNLGTGGMMTKIIAADVATRSGIETIIAPGNRPNVIADLAYEQNIGTKFIAHQSDRLESRKQWLFAAPSAGIITIDNGAQNAILEQNKSLLPAGIINVEGRFSRGEVVKIRTQSGKDIALGMPRYNSDALQLIKGRKSADIENVLGYEYGAVAMHRDDMIILSEGHHHHHH	soluble
MKIIKRNGSEAVFDISKIMMAVSRANEVVQANQKLSKAQINAIAAQVEEVCSTRPHAMNVEEIQDLVENQIMEQQAFEVARKYITYRYIRTLKRSSN	not soluble
MDRIQENQKKATNLCELYADGNDDDSEKEQQDRGLDAQFLLRSTPEDVEKYMIHVRKQLMEGEGECLVELGAPINSNSKNPKSGLSEEDLDKAADAQLKILEKIPAVGTKVIRRKQTGGGSLFTEVWIIRDPPTEKDFIEARVAVVGNVDAGKSTLLGVLTHSALDDGRGAARTKLFRHKHEFESGRTSSVGNDILGFDVHGNIVNKPDPHNHNLDWVQIGSDCAKLVTFIDLAGHEKYLKTTIFGMTGHMPDYTMLMIGANMGIIGTTKEHLSLALSLHVPVYLVVTKIDMCPANILEETMKNITRLVRSAKKLPILVRNMDDVVHAAVNFPSKKVCPIFQVSNVEGTNLPLLRQFLNIVPLRRQLNENDPAHFQIDDIYWVDGVGTIASGTLLSGTIRLNDILLLGPTSNGDFMPIPIKSIHRKRMPVGIVKCGQSASFALKKIPKKDVRKGMVLVDPKVKPVASMVFEAEILVLHHPTTIKPNYQAMLHIGSVRQTATLVSMGKEVLRTGDRDKVQFKFIRQPEYIRPGTKMVFREGRTKAVGTVSSVVPQESLAQQRAKQKDGRQKQYGKKSMGPKPPNGKPKEKIEKKLDALSIEQLTSAASTSTSST	not soluble
MKSHVTDLTETLSSMEISRLEQQLTDFEAKKGSQIALLIIPTTQPETIEQYSIQVAEVWKLGRKGIDDGVLLLVAKNDRTLRIETGYGLEGVLPDALARRIIDEIIVPKFRQGHFFGGLQAGVEQIISIIEGETLPESLEHHHHHH	not soluble
MSDLHIPGTQSTPAIQGDWQAGRLSMQGDSYPENSYELFGQVIDWVERFLADGQRPLELDLRLLYLNTSSIKAMMDILDLLEEAHQGGRPVSLRWHYDRRNERVAELAEEFREDCSFPFAIQAHDE	not soluble
MLDTAAIIISQGKKIAYAYAEGVNDNMTQSHFHDFFELYYLLEGERMHMIEGEIYHLTANDFVLFPPHIMHHSYGEKDMPFKRIVLYFSPDLIANDTICQLLSEKELLFVNEGYIPNQILSLLLSLTHEIDVPGKYHDAYICNQLNGLLLNMLRLDFEAVKSIPKTRSAKAVDYIHNHYMEDISVNQLAEILYVSPYHLCHEFKNATGKTIIQYLNTTRILHAQRLMLETDYNITQISREVGFSNLTHFNRTFKKITGVAPREKKKLYQK	not soluble
MGHHHHHHSHMRIVMKFGGVSVKDGENIYHCANLVKKFSEGNEVVVVVSAMQGVTDALLKAAHRCCSEPSAGFIKMFIADMMKRHYEAIEYAVRNDEIKAKVIAAVERLLDELEKVLLGISYLGELTRRSEDYIVSFGERLSAPIFSAALLSLGVDSVALTGGDAGIITDRNFGRAKPLPGVYTTIRNRLEPLLTIKKTIPVVTGFIGATDDGSITTLGRGGSDYTATILAAALDADEVWLWKEVDGIMTCDPKYVPNARVIPEISYQEAMELSHFGAKILHPRALEPVMRKNIPVRIKN	not soluble
MGSDKIHHHHHHMPASKIYLLDYGWLGGDIGWFLPGQLGGAMTNSERNPRRDWVEIPITGALIDHPDARILFDTGIAPDAMKTHERGLMEAFPITKMDDQNHIENQLKLIGLKPEDIDFVVISHLHLDHIGQAAVFKDSHVPIIVQKKELESALSLIWQGKSGAYDYSDLLPLKGAAWMPLDDPVFEIVDGVYAEFTGGHTAGHQVLTVKTEKGSMYTLTGDFLHLPKEYDVEAKGWLLSNATEWNSYIKKMKIREKARKQKLIISHDPGIWDKYPHAPKFVE	not soluble
SLKIRERFSMVDLPVLIITAAIIGHDKYKAFHAGANDILQKPYHYSEFMARIQNLIMMKHTANQATRMEMAFLQSQIKPHFLYNVLNTIISLTHLDIEKAREVTEEFTNYLRMSFDFQNTSAISSFRHELSIINSYLSIEKTRFSNRLEVLFDIDEDIDFILPPLMIQPLVENAVLHGVSKKRGGGWIKLTAKKQSKNEYHIKVEDNGPGITPEKQIDLLSTDFDRSVGLKNINQRLKHFCGSELMISSTPDAGTSVSMLIHLAETTGSPKELKDTERT	soluble
MEAVERAFRALDEGIADYLARKGIRPSCGPGCFACCYGWVTASRLEAQALLPHLTEAQKARVLEEGPRRLALLAREKDDPGFPRRFFLSRSPCPLLEAGLCGVYAHRPLACRGVLTDEDPAYCDPENPHPAPKPHHGPGHFLRVPHRMARRRMEELWEEERAQTGFLVLGELSGLLYLLLTGLPEDREGVEARLEALGVLGGRFGFQVVAAALEHHHHHH	not soluble
MAHHHHHHMESAIGLSVPLYQPHAPAPGAVIDPDMVEDHVSFLRTVRAFHDYKRQALAAREMRCTNFRKLQDQHRHLLCIDLDKILEKYLECIKVNSAFFDAICEASEELFDSYWPEGTTVFMKEVPPPTPLDMNKVFSTLRQFVRDWSAEGVAERDCVYKPILDTLDRCFPNRSERENVRVLIPGAGLCRLSVELALHGFFAQANEFSYHMLIAGHYIQNHVFESCQHKIYPYSDSTCNLVNRADQFAEVQIPDLCASEAIDALRDKGLSFGQLSMVAGDFTEVYAKPHQHKTWSVVATCFFIDTAHNIIEYLVIIYNLLVPGGYWVNVGPLLYHFADSADDMSIELSLGEVLTVAQRIGFVLNGPPSFIDTTYTNNQRSMKQLVYRCAFFVLQRPLADRQTEQMDRNVEAKVT	not soluble
